Assay results taken from patent US20240018252A1 (Pfizer, published 2024).

T1: human BCMA (human, UniProt Q02223 1-54)
T1 construct: also called huBCMA; hBCMA
T1 sequence: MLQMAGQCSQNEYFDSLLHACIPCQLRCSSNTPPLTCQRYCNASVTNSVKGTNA

B1: L3.PY/L1.AH/H3.TAQ (antibody, V domains shown)
VH: EVQLLESGGGLVQPGGSLRLSCAASGFTFGSYAMTWVRQAPGKGLEWVSAISGSGGNTFYADSVKGRFTISRDNSKNTLYLQMNSLRAEDTAVYYCTRVSPIAAQMDYWGQGTLVTVSS
VL: EIVLTQSPGTLSLSPGERATLSCRASQSVSAHYLAWYQQKPGQAPRLLIYGASSRATGIPDRFSGSGSGTDFTLTISRLEPEDFAVYYCQHYPYPPSFTFGQGTKVEIK
notes: IgG in the assay
B2: L3.PY/L1.FF/H3.AE (antibody, V domains shown)
VH: EVQLLESGGGLVQPGGSLRLSCAASGFTFGSYAMTWVRQAPGKGLEWVSAISGSGGNTFYADSVKGRFTISRDNSKNTLYLQMNSLRAEDTAVYYCARVSPIAAEMDYWGQGTLVTVSS
VL: EIVLTQSPGTLSLSPGERATLSCRASQSVSSFFLAWYQQKPGQAPRLLIYGASSRATGIPDRFSGSGSGTDFTLTISRLEPEDFAVYYCQHYPYPPSFTFGQGTKVEIK
notes: IgG in the assay
B3: L3.PY/L1.PH/H2.QR (antibody, V domains shown)
VH: EVQLLESGGGLVQPGGSLRLSCAASGFTFGSYAMTWVRQAPGKGLEWVSAISGSGGNTFYADQRKGRFTISRDNSKNTLYLQMNSLRAEDTAVYYCARVSPIASGMDYWGQGTLVTVSS
VL: EIVLTQSPGTLSLSPGERATLSCRASQSVSPHYLAWYQQKPGQAPRLLIYGASSRATGIPDRFSGSGSGTDFTLTISRLEPEDFAVYYCQHYPYPPSFTFGQGTKVEIK
notes: IgG in the assay
B4: L3.PY/L1.FF/H2.QL (antibody, V domains shown)
VH: EVQLLESGGGLVQPGGSLRLSCAASGFTFGSYAMTWVRQAPGKGLEWVSAISGSGGNTFYADQLKGRFTISRDNSKNTLYLQMNSLRAEDTAVYYCARVSPIASGMDYWGQGTLVTVSS
VL: EIVLTQSPGTLSLSPGERATLSCRASQSVSSFFLAWYQQKPGQAPRLLIYGASSRATGIPDRFSGSGSGTDFTLTISRLEPEDFAVYYCQHYPYPPSFTFGQGTKVEIK
notes: IgG in the assay
B5: L3.PY/L1.PH/H3.AQ (antibody, V domains shown)
VH: EVQLLESGGGLVQPGGSLRLSCAASGFTFGSYAMTWVRQAPGKGLEWVSAISGSGGNTFYADSVKGRFTISRDNSKNTLYLQMNSLRAEDTAVYYCARVSPIAAQMDYWGQGTLVTVSS
VL: EIVLTQSPGTLSLSPGERATLSCRASQSVSPHYLAWYQQKPGQAPRLLIYGASSRATGIPDRFSGSGSGTDFTLTISRLEPEDFAVYYCQHYPYPPSFTFGQGTKVEIK
notes: IgG in the assay
B6: L3.PY/L1.FF/H2.HA (antibody, V domains shown)
VH: EVQLLESGGGLVQPGGSLRLSCAASGFTFGSYAMTWVRQAPGKGLEWVSAISHAGGNTFYADSVKGRFTISRDNSKNTLYLQMNSLRAEDTAVYYCARVSPIASGMDYWGQGTLVTVSS
VL: EIVLTQSPGTLSLSPGERATLSCRASQSVSSFFLAWYQQKPGQAPRLLIYGASSRATGIPDRFSGSGSGTDFTLTISRLEPEDFAVYYCQHYPYPPSFTFGQGTKVEIK
notes: IgG in the assay
B7: L3.PY/L1.FF/H3.AQ (antibody, V domains shown)
VH: EVQLLESGGGLVQPGGSLRLSCAASGFTFGSYAMTWVRQAPGKGLEWVSAISGSGGNTFYADSVKGRFTISRDNSKNTLYLQMNSLRAEDTAVYYCARVSPIAAQMDYWGQGTLVTVSS
VL: EIVLTQSPGTLSLSPGERATLSCRASQSVSSFFLAWYQQKPGQAPRLLIYGASSRATGIPDRFSGSGSGTDFTLTISRLEPEDFAVYYCQHYPYPPSFTFGQGTKVEIK
notes: IgG in the assay
B8: L3.PY/L1.FF/H3.YA (antibody, V domains shown)
VH: EVQLLESGGGLVQPGGSLRLSCAASGFTFGSYAMTWVRQAPGKGLEWVSAISGSGGNTFYADSVKGRFTISRDNSKNTLYLQMNSLRAEDTAVYYCARVSPIYAGMDYWGQGTLVTVSS
VL: EIVLTQSPGTLSLSPGERATLSCRASQSVSSFFLAWYQQKPGQAPRLLIYGASSRATGIPDRFSGSGSGTDFTLTISRLEPEDFAVYYCQHYPYPPSFTFGQGTKVEIK
notes: IgG in the assay
B9: L3.PY/L1.PH/H2.HA (antibody, V domains shown)
VH: EVQLLESGGGLVQPGGSLRLSCAASGFTFGSYAMTWVRQAPGKGLEWVSAISHAGGNTFYADSVKGRFTISRDNSKNTLYLQMNSLRAEDTAVYYCARVSPIASGMDYWGQGTLVTVSS
VL: EIVLTQSPGTLSLSPGERATLSCRASQSVSPHYLAWYQQKPGQAPRLLIYGASSRATGIPDRFSGSGSGTDFTLTISRLEPEDFAVYYCQHYPYPPSFTFGQGTKVEIK
notes: IgG in the assay
B10: L3.PY/L1.FF/H2.DY (antibody, V domains shown)
VH: EVQLLESGGGLVQPGGSLRLSCAASGFTFGSYAMTWVRQAPGKGLEWVSAIDYSGGNTFYADSVKGRFTISRDNSKNTLYLQMNSLRAEDTAVYYCARVSPIASGMDYWGQGTLVTVSS
VL: EIVLTQSPGTLSLSPGERATLSCRASQSVSSFFLAWYQQKPGQAPRLLIYGASSRATGIPDRFSGSGSGTDFTLTISRLEPEDFAVYYCQHYPYPPSFTFGQGTKVEIK
notes: IgG in the assay
B11: L3.PY/L1.FF/H2.YQ (antibody, V domains shown)
VH: EVQLLESGGGLVQPGGSLRLSCAASGFTFGSYAMTWVRQAPGKGLEWVSAISYQGGNTFYADSVKGRFTISRDNSKNTLYLQMNSLRAEDTAVYYCARVSPIASGMDYWGQGTLVTVSS
VL: EIVLTQSPGTLSLSPGERATLSCRASQSVSSFFLAWYQQKPGQAPRLLIYGASSRATGIPDRFSGSGSGTDFTLTISRLEPEDFAVYYCQHYPYPPSFTFGQGTKVEIK
notes: IgG in the assay
B12: L3.PY/L1.FF/H2.LT (antibody, V domains shown)
VH: EVQLLESGGGLVQPGGSLRLSCAASGFTFGSYAMTWVRQAPGKGLEWVSAISLTGGNTFYADSVKGRFTISRDNSKNTLYLQMNSLRAEDTAVYYCARVSPIASGMDYWGQGTLVTVSS
VL: EIVLTQSPGTLSLSPGERATLSCRASQSVSSFFLAWYQQKPGQAPRLLIYGASSRATGIPDRFSGSGSGTDFTLTISRLEPEDFAVYYCQHYPYPPSFTFGQGTKVEIK
notes: IgG in the assay
B13: L3.PY/L1.PH/H3.AE (antibody, V domains shown)
VH: EVQLLESGGGLVQPGGSLRLSCAASGFTFGSYAMTWVRQAPGKGLEWVSAISGSGGNTFYADSVKGRFTISRDNSKNTLYLQMNSLRAEDTAVYYCARVSPIAAEMDYWGQGTLVTVSS
VL: EIVLTQSPGTLSLSPGERATLSCRASQSVSPHYLAWYQQKPGQAPRLLIYGASSRATGIPDRFSGSGSGTDFTLTISRLEPEDFAVYYCQHYPYPPSFTFGQGTKVEIK
notes: IgG in the assay
B14: L3.PY/L1.FF/H3.TAQ (antibody, V domains shown)
VH: EVQLLESGGGLVQPGGSLRLSCAASGFTFGSYAMTWVRQAPGKGLEWVSAISGSGGNTFYADSVKGRFTISRDNSKNTLYLQMNSLRAEDTAVYYCTRVSPIAAQMDYWGQGTLVTVSS
VL: EIVLTQSPGTLSLSPGERATLSCRASQSVSSFFLAWYQQKPGQAPRLLIYGASSRATGIPDRFSGSGSGTDFTLTISRLEPEDFAVYYCQHYPYPPSFTFGQGTKVEIK
notes: IgG in the assay
B15: L3.PY/L1.FF/H2.QR (antibody, V domains shown)
VH: EVQLLESGGGLVQPGGSLRLSCAASGFTFGSYAMTWVRQAPGKGLEWVSAISGSGGNTFYADQRKGRFTISRDNSKNTLYLQMNSLRAEDTAVYYCARVSPIASGMDYWGQGTLVTVSS
VL: EIVLTQSPGTLSLSPGERATLSCRASQSVSSFFLAWYQQKPGQAPRLLIYGASSRATGIPDRFSGSGSGTDFTLTISRLEPEDFAVYYCQHYPYPPSFTFGQGTKVEIK
notes: IgG in the assay

Biological target: T1, human BCMA
Test: SPR, immobilised IgG, 37° C

Binder | T½
B1 | 9.68 min
B2 | 4.39 min
B3 | 4.89 min
B4 | 8.28 min
B5 | 7.27 min
B6 | 5.29 min
B7 | 7.51 min
B8 | 6.41 min
B9 | 9.99 min
B10 | 4.27 min
B11 | 7.61 min
B12 | 6.92 min
B13 | 8.61 min
B14 | 6.12 min
B15 | 6.54 min
